From patent US20200024330A1

Columns and labels:
Experiment in all cases: cell-based or functional assay
[1] = molecular target: HIV-1 92TH021 envelope glycoprotein (Env) on pseudovirus (HIV-1)
[2] = molecular target: HIV-1 92UG005 envelope glycoprotein (Env) on pseudovirus (HIV-1)
[3] = molecular target: HIV-1 92UG024 envelope glycoprotein (Env) on pseudovirus (HIV-1)
[4] = molecular target: HIV-1 CMU02 envelope glycoprotein (Env) on pseudovirus (HIV-1)
[5] = molecular target: aMLV envelope protein on pseudovirus (negative control virus)
[6] = molecular target: HIV-1 MGRM-AG-005 envelope glycoprotein (Env) on pseudovirus (HIV-1)
[7] = molecular target: HIV-1 MGRM-D-001 envelope glycoprotein (Env) on pseudovirus (HIV-1)
[8] = molecular target: HIV-1 MGRM-D-018 envelope glycoprotein (Env) on pseudovirus (HIV-1)

Substance	IC50, pseudovirus neutralization [1] [µg/mL]	IC50, pseudovirus neutralization [2] [µg/mL]	IC50, pseudovirus neutralization [3] [µg/mL]	IC50, pseudovirus neutralization [4] [µg/mL]	IC50, pseudovirus neutralization [5] [µg/mL]	IC50, pseudovirus neutralization [6] [µg/mL]	IC50, pseudovirus neutralization [7] [µg/mL]	IC50, pseudovirus neutralization [8] [µg/mL]
PGT-121 monoclonal antibody	> 10	> 10	> 10	> 10	> 10			
PGT-122 monoclonal antibody	> 10	> 10	> 10	> 10	> 10	> 10	0.867	0.0115
